B1: Protein phosphatase Slingshot homolog 1 (Homo sapiens), Q8WYL5 (parent)
chain: MALVTLQRSPTPSAASSSASNSELEAGSEEDRKLNLSLSESFFMVKGAALFLQQGSSPQGQRSLQHPHKHAGDLPQHLQVMINLLRCEDRIKLAVRLESAWADRVRYMVVVYSSGRQDTEENILLGVDFSSKESKSCTIGMVLRLWSDTKIHLDGDGGFSVSTAGRMHIFKPVSVQAMWSALQVLHKACEVARRHNYFPGGVALIWATYYESCISSEQSCINEWNAMQDLESTRPDSPALFVDKPTEGERTERLIKAKLRSIMMSQDLENVTSKEIRNELEKQMNCNLKELKEFIDNEMLLILGQMDKPSLIFDHLYLGSEWNASNLEELQGSGVDYILNVTREIDNFFPGLFAYHNIRVYDEETTDLLAHWNEAYHFINKAKRNHSKCLVHCKMGVSRSASTVIAYAMKEFGWPLEKAYNYVKQKRSITRPNAGFMRQLSEYEGILDASKQRHNKLWRQQTDSSLQQPVDDPAGPGDFLPETPDGTPESQLPFLDDAAQPGLGPPLPCCFRRLSDPLLPSPEDETGSLVHLEDPEREALLEEAAPPAEVHRPARQPQQGSGLCEKDVKKKLEFGSPKGRSGSLLQVEETEREEGLGAGRWGQLPTQLDQNLLNSENLNNNSKRSCPNGMEDDAIFGILNKVKPSYKSCADCMYPTASGAPEASRERCEDPNAPAICTQPAFLPHITSSPVAHLASRSRVPEKPASGPTEPPPFLPPAGSRRADTSGPGAGAALEPPASLLEPSRETPKVLPKSLLLKNSHCDKNPPSTEVVIKEESSPKKDMKPAKDLRLLFSNESEKPTTNSYLMQHQESIIQLQKAGLVRKHTKELERLKSVPADPAPPSRDGPASRLEASIPEESQDPAALHELGPLVMPSQAGSDEKSEAAPASLEGGSLKSPPPFFYRLDHTSSFSKDFLKTICYTPTSSSMSSNLTRSSSSDSIHSVRGKPGLVKQRTQEIETRLRLAGLTVSSPLKRSHSLAKLGSLTFSTEDLSSEADPSTVADSQDTTLSESSFLHEPQGTPRDPAATSKPSGKPAPENLKSPSWMSKS

We go through two variants from IntAct's records for PubMed 21525957.

The first test covers variants of B1. Particulars: with cof1_human CFL1, P23528.
Sequence of cof1_human CFL1, P23528 (P23528 whole entry): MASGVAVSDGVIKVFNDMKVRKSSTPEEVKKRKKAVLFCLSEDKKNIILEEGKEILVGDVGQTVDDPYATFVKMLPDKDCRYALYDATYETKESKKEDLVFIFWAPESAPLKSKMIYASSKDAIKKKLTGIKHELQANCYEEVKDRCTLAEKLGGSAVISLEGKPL
Regarding S402D, the “effect of a mutation on the interaction” value is on record as “disrupting interaction”.

The variants in a further test derive from B1. The note with it: with cof1_human CFL1, P23528. This is another data set of the same source.
With S402E, the “effect of a mutation on the interaction” value is “disrupting interaction”.
